According to PMC8192010:

Test system: CsrA-H6 (Escherichia coli (stated identical to S. Typhimurium CsrA))
Test: EMSA

Which Kd does the source give for hilE leader RNA (+153 to +280) here?
The Kd was 37 nM.
